Measured values from publication PMC10707054.

Molecular target: FLAG-PTTG1Δ159
Assay: co-IP; TCAM2 cells overexpressing FLAG-PTTG1 or FLAG-PTTG1Δ159; IP with M2 αFLAG antibody overnight at 4 °C, Dynabeads; IP lysis buffer 50 mM Tris-Cl pH 7.5, 150 mM NaCl, 1% Nonidet P-40, 1 mM EDTA; Western blot for endogenous SPTBN1, densitometry

binding relative to wild-type PTTG1 (densitometry of the co-IP): 30%
Substance: Spectrin-βII-chain (SPTBN1) (from UniProt Q01082 1-2364) (natural protein)
